Experiment [1] addresses T1, human ADAMTS5 (human, UniProt Q9UNA0 262-622, limits assumed).
T1 construct: Octet and ELISA used 'recombinant human ADAMTS5'; also called recombinant human ADAMTS5; ADAMTS5 (R&D Systems 2198-AD)
T1 sequence: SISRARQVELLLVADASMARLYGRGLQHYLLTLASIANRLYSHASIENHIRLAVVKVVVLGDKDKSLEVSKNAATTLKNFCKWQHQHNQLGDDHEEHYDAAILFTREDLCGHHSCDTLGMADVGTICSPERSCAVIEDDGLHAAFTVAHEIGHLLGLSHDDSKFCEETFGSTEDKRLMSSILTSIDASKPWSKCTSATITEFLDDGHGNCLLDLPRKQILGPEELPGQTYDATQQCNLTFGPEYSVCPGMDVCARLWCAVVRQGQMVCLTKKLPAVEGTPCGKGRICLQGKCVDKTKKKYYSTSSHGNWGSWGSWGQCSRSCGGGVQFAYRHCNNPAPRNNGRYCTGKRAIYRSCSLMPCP
Briefly: ELISA on coated recombinant human ADAMTS5 (0.2 ug/ml), antibody in culture supernatant, anti human kappa peroxidase, OD 490 nm. Here is the method: A binding ELISA was carried out to test the binding of the expressed antibodies in cell culture supernatant to recombinant ADAMTS5. ELISA plates were coated with recombinant human ADAMTS5 at 0.2 μg/ml and blocked with blocking solution (4% BSA in Tris buffered saline). Various dilutions of the tissue culture supernatants were added and the plate was incubated for 1 hour at room temperature before washing in TBST. Binding was detected by the addition of a peroxidase labelled anti human kappa light chain antibody (Sigma A7164) at a dilution of 1/1000 in blocking solution. The plate was incubated for 1 hour at room temp before washing in TBST. The plate was developed by addition of OPD substrate (Sigma P9187) and colour development stopped by addition of 2M H₂SO₄. Absorbance was measured at 490 nm with a plate reader and the mean absorbance plotted against concentration.
(In general: In an ELISA, binding on a coated surface is turned into a signal by an enzyme label.)

The target in experiment [2] is T1, human ADAMTS5. In words: Biacore T100, CHO-expressed mAb captured on Protein A, ADAMTS5 (R&D 2198-AD) 0.0625-64 nM, 1:1 fit. Here is the method: (§1) Protein A was immobilized on a CM5 biosensor chip by primary amine coupling. This surface was used to capture the Fc disabled anti-ADAMTS5 antibody, 12F4 H4L0 IgG1m(AA) (BPC1661), (CHO and HEK expressed material). Recombinant human ADAMTS5 (R&D Systems 2198-AD) was used as the analyte at 64 nM, 16 nM, 4 nM, 1 nM, 0.25 nM and 0.0625 nM, with a buffer injection (i.e. 0 nM) used to double reference the binding curves. Regeneration of the capture surface (i.e. removal of the captured antibody) was with 50 mM NaOH. The running buffer was HBS-EP and the run was carried out on the Biacore T100 at 25° C. The data was fitted to the 1:1 model inherent to the machines analysis software.
(Surface plasmon resonance follows binding to a sensor surface in real time, without labels.)

For experiment [3], the target named is T1, human ADAMTS5. Briefly: Biacore T100, HEK-expressed mAb captured on Protein A, ADAMTS5 (R&D 2198-AD) 0.0625-64 nM, 1:1 fit. The procedure:
as §1

Experiment [4] deals with T1, human ADAMTS5. In words: cell-based or functional assay.
The target in experiment [5] is T1, human ADAMTS5. In words: Octet QK, purified mAb. A general note: Biolayer interferometry detects binding as a change in optical thickness at a sensor tip.
Experiment [6] addresses T1, human ADAMTS5. Briefly: Octet QK, purified murine mAb.
Experiment [7] has as its target T1, human ADAMTS5. Briefly: Biacore, mAb down, no avidity.
The next experiment has as its target Human MMP3 (human, UniProt P08254 18-477, limits assumed). Briefly: celTRF and Octet QK cross-reactivity.
The target of the next experiment is Human MMP9 (human, UniProt P14780 20-707, limits assumed). In words: celTRF and Octet QK cross-reactivity.
A further experiment deals with Human MMP13 (human, UniProt P45452 20-471, limits assumed). Briefly: celTRF and Octet QK cross-reactivity.
For another experiment, the target named is T2, Human ADAMTS1 (human, UniProt Q9UHI8 253-967, limits assumed).
T2 sequence (looked up): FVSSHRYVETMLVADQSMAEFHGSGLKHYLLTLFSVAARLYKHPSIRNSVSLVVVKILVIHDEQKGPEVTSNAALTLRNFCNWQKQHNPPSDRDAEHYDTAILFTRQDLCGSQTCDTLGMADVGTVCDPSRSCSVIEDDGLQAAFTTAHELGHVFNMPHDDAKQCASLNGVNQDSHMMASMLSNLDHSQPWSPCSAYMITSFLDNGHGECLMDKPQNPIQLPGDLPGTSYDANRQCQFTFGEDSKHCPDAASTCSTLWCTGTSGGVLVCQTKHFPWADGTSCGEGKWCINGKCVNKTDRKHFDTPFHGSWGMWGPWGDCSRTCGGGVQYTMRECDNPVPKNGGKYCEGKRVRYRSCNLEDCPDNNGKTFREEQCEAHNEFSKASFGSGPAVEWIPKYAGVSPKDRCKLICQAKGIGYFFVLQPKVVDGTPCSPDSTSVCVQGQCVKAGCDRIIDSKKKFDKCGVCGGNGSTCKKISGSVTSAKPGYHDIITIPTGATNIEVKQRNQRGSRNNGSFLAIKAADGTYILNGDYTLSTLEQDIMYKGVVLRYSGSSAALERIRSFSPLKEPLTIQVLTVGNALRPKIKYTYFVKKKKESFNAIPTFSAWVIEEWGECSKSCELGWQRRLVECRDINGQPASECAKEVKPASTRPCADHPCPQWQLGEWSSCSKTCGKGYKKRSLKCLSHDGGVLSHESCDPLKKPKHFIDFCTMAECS
In words: celTRF and Octet QK cross-reactivity.

The target of the next experiment is T3, Human ADAMTS4 (human, UniProt O75173 213-685, limits assumed).
T3 construct: also called aggrecanase-1
T3 sequence: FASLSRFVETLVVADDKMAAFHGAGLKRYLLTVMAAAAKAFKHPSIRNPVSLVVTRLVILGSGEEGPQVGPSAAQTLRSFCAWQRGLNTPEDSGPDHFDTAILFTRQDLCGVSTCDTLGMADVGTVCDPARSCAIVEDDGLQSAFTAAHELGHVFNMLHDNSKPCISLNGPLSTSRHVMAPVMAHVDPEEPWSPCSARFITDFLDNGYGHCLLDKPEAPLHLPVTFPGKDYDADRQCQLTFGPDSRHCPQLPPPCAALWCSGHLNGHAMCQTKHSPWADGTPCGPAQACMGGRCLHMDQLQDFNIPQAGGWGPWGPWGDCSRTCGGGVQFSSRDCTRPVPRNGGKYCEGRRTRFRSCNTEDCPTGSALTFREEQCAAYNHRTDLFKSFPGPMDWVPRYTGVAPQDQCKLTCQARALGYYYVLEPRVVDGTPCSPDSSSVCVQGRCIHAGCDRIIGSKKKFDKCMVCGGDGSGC
In words: celTRF and Octet QK cross-reactivity.

In the next experiment the target is T4, Human ADAMTS13 (human, UniProt Q76LX8 75-685, limits assumed).
T4 sequence (looked up): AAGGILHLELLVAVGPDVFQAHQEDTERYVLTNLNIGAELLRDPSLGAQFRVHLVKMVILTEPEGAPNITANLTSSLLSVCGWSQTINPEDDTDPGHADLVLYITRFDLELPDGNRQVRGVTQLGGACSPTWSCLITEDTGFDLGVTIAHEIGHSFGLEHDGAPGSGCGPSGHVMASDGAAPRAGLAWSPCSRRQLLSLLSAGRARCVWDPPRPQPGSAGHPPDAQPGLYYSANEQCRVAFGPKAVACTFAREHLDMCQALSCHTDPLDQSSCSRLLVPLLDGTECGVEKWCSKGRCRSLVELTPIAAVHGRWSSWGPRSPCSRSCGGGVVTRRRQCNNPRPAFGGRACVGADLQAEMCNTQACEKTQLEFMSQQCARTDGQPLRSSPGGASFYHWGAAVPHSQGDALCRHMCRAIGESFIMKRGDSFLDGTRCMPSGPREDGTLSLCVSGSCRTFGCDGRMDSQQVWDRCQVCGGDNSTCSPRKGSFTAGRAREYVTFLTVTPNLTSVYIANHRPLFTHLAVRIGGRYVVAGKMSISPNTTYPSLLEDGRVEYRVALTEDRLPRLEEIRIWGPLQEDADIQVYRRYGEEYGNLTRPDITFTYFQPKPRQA
In words: celTRF and Octet QK cross-reactivity.

The target of another experiment is T5, Human MMP1 (human, UniProt P03956 20-469, limits assumed).
T5 sequence (looked up): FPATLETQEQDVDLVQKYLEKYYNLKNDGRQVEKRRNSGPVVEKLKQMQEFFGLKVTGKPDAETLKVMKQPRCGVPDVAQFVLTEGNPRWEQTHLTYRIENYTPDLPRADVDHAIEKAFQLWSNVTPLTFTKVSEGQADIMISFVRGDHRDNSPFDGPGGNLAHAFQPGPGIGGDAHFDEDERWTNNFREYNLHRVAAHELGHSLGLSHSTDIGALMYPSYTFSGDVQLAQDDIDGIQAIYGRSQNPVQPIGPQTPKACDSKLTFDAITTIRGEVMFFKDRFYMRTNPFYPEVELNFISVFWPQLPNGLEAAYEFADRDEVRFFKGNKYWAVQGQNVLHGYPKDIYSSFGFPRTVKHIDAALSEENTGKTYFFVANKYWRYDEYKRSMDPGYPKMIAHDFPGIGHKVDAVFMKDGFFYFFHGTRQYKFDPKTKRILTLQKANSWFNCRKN
Briefly: celTRF and Octet QK cross-reactivity.

Experiment [8] addresses T1, human ADAMTS5. In words: Octet QK, antigen down, incl avidity.

The record followed here is patent US20120095193A1 (published 2012).

Sequence of Human MMP3 (P08254 18-477 limits assumed): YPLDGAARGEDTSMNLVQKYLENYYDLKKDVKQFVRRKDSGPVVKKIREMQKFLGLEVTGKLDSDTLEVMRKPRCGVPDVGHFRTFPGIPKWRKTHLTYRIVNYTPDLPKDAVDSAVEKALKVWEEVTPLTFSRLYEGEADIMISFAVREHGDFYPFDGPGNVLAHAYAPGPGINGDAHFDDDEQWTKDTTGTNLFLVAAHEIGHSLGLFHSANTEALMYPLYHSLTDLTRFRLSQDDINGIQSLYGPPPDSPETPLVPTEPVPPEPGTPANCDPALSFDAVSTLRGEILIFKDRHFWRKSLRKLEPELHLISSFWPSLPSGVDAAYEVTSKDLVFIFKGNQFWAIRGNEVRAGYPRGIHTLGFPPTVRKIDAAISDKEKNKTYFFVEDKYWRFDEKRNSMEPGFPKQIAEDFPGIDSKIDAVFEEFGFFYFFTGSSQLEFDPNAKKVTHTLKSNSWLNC
Sequence of Human MMP9 (P14780 20-707 limits assumed): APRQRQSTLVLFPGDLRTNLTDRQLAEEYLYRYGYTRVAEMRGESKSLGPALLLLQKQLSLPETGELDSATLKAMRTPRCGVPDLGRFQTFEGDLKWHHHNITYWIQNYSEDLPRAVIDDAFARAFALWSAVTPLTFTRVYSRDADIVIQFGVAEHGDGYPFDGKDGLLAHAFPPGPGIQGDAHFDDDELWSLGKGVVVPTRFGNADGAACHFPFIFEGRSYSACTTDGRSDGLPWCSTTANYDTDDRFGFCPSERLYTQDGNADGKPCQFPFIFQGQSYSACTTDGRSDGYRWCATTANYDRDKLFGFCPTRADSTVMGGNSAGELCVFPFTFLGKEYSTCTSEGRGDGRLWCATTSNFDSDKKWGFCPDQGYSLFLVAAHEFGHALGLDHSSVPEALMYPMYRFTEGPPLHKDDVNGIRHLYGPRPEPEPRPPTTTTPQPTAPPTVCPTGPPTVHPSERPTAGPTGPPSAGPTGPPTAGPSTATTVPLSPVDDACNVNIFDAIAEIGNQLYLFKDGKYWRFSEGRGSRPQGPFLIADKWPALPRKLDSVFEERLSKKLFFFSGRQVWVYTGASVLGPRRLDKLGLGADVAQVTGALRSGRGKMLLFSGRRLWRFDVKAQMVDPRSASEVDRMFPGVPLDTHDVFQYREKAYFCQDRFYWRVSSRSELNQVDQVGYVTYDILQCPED

B1: BPC1655 (antibody, human IgG1, kappa, V domains shown)
VH: EVQLLESGGGLVQPGGSLRLSCAASGFTFSDAWMDWVRQAPGKGLEWVSEIRHKANDHAIFYDESVKGRFTISRDNSKNTLYLQMNSLRAEDTAVYYCAKPFAYWGQGTLVTVSS
VL: DIQMTQSPSSLSASVGDRVTITCKASQSVGTTIVWYQQKPGKAPKLLIYSASNRHTGVPSRFSGSGSGTDFTLTISSLQPEDFATYYCQQYTSYPFTFGQGTKLEIKR
notes: Humanized, human gamma 1 / kappa; also called 12F4 H0L0
On to B1, for which, in the experiment with human ADAMTS5 [1], the binding result is “no binding (tested: about 2.5 ug/ml)”.

B2: BPC1661 (antibody, human IgG1, kappa)
heavy: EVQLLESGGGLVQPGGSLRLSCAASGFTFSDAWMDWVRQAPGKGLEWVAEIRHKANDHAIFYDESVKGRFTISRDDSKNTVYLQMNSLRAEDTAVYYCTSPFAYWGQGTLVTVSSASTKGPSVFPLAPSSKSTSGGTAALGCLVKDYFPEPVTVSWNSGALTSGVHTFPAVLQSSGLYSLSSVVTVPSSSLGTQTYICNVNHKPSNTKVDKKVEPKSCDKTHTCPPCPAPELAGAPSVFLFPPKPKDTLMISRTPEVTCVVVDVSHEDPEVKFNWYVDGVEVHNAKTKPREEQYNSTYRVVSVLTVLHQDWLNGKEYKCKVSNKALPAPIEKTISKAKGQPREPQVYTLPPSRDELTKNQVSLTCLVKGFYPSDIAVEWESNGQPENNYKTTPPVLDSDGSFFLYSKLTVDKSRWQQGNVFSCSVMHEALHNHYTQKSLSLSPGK
light: DIQMTQSPSSLSASVGDRVTITCKASQSVGTTIVWYQQKPGKAPKLLIYSASNRHTGVPSRFSGSGSGTDFTLTISSLQPEDFATYYCQQYTSYPFTFGQGTKLEIKRTVAAPSVFIFPPSDEQLKSGTASVVCLLNNFYPREAKVQWKVDNALQSGNSQESVTEQDSKDSTYSLSSTLTLSKADYEKHKVYACEVTHQGLSSPVTKSFNRGEC
notes: HEK- and CHO-expressed material was tested; also called 12F4 H4L0 IgG1m(AA); Fc disabled anti-ADAMTS5 antibody
Consider B2, for which the Kd stood at 0.07 nM with human ADAMTS5 [2] and 0.074 nM with human ADAMTS5 [3].

B3: 12F4.1H7 (antibody, IgG2, V domains shown)
VH: EVKLEESGGGLVQPGGSMKLSCTASGFTFSDAWMDWVRQSPEKGLEWVAEIRHKANDHAIFYDESVKGRFTISRDDSKNIVYLQMNSLRPEDTGIYYCTSPFAYWGQGTLVTVSA
VL: DIVMTQSQKFMSVTVGDRVSITCKASQSVGTTIVWYQQKPGQSPKLLIYSASNRHTGVPDRFTGSGSGTDFILTINNVQSEDLADYFCQQYTSYPFTFGSGTKLEIKR
notes: also called Murine 12F4.1H7
As to B3, in the experiment with human ADAMTS5 [4], the “Aggrecan Substrate Cleavage Neutralization IC50” value amounted to 0.06 nM. The Kd is 0.0685 nM with human ADAMTS5 [5], 0.436 nM with human ADAMTS5 [6], 0.067 nM in the experiment with human ADAMTS5 [7] and 0.0356 nM with human ADAMTS5 [8]. For the same molecule, the binding result in the experiment with Human MMP3, in the experiment with Human MMP9, with Human MMP13, with Human ADAMTS1, with Human ADAMTS4 and in the experiment with Human ADAMTS13 was “no binding” throughout. The binding result in the experiment with Human MMP1 is “no binding”.

B4: 7B4.1E11 (antibody, IgG1, V domains shown)
VH: EVKLEESGGGLVQPGGSMKLSCAASGFTSSDAWMDWVRQSPEKGLEWVAEIRNKANNHARHYAESVKGRFTISRDDSKSSVYLQMNSLRAEDSGIYYCTRTYYYGSSYGYCDVWGTGTTVTVSS
VL: DIQMTQSPASLSASVGETVTITCRTSENIYSYLAWYQQKQGKSPQLLVYNAKTLAEGVPSRFSGSGSGTQFSLKINSLQPEDFGSYSCQHHYGTPWTFGGGTKLEIKR
notes: also called Murine 7B4.1E11
As for B4, in the experiment with human ADAMTS5 [4], the “Aggrecan Substrate Cleavage Neutralization IC50” value amounted to 0.08 nM. In addition, the Kd with human ADAMTS5 [5] came out at 0.358 nM; with human ADAMTS5 [6] it was 0.899 nM; in the experiment with human ADAMTS5 [7] it was 0.483 nM; in the experiment with human ADAMTS5 [8] it was 0.28 nM. Moreover, the binding result in the experiment with Human MMP3, with Human MMP9, in the experiment with Human MMP13, with Human ADAMTS1, with Human ADAMTS4 and in the experiment with Human ADAMTS13 was “no binding” in each case. For the same molecule, the binding result with Human MMP1 was “no binding”.
